Assay [1] deals with T1, chimeric fusion of Ig Fc region with human KDR (human, UniProt P35968 20-764).
T1 construct: bought, carrier-free; also called KDR-Fc; KDR Fc fusion; not shown: Ig Fc region
In words: SPR; form of KDR not stated there. (In general: Surface plasmon resonance follows binding to a sensor surface in real time, without labels.)

The target of assay [2] is T2, KDR (VEGFR-2), full-length receptor on cells (human, UniProt P35968 20-1356).
T2 construct: whole, on cells; the assay field tells which cells; also called KDR-expressing cells
In words: 3.33 nM peptide mix/neutravidin-HRP complex on 293H cells. As to the method: Peptide stock solutions were stored at −20C, whereas the Neutravidin HRP stock solution was stored at −80C. […] Fresh peptide/neutravidin HRP complexes were prepared for each experiment.
After incubation at room temperature, plates were transferred to 4C for another half-hour incubation. Subsequently, cells were washed five times with ice-cold M199 media and once with ice-cold PBS (in that order). After the final wash, 100 μL of ice cold TMB solution (KPL, Gaithersburg, Md.) was added to each well and each plate was incubated for 30 minutes at 37C in an air incubator.

Assay [3] deals with T1, chimeric fusion of Ig Fc region with …. In words: BIAcore steady state, KDAV, KDR-Fc 3000 RU. The method, then: (§1) The heterodimer was tested for binding to KDR-Fc using Biacore, and an affinity constant was determined as follows.
(§2) All samples were injected in duplicate. […] Following a 10 minute dissociation, any remaining peptide was stripped from the KDR surface with a quickinject of 50 mM NaOH+1 M NaCl for 12 s at 75 μL/min. Sensorgrams were analyzed using BIAevaluation software 3.1 and a hyperbolic double rectangular regression equation in SigmaPlot 6.0.

Assay [4] shares this target. In words: BIAcore steady state, KD1, KDR-Fc 3000 RU. The method, then:
as §1, §2

For assay [5] the target is unchanged. In words: BIAcore steady state, KDAV, KDR-Fc 6000 RU. As to the method: as §1, §2
Assay [6] has the same target. In words: BIAcore steady state, KD1, KDR-Fc 1600 RU.
Assay [7] shares this target. In words: BIAcore steady state at the higher immobilization densities. As to the method:
as §2

Assay [8] has the same target. Nature of the assay: BIAcore steady state, KD1, KDR-Fc 6000 RU. As to the method:
as §1, §2

Assay [9] has as its target T2, KDR (VEGFR-2), full-length receptor on …. In words: cell-based or functional assay.
For assay [10], the target named is T1, chimeric fusion of Ig Fc region with …. Nature of the assay: BIAcore steady state, KDAV, KDR-Fc 1600 RU. As to the method: as §1, §2
In assay [11] the target is T2, KDR (VEGFR-2), full-length receptor on …. In words: competitor 125I-VEGF (300 pM) on KDR-transfected 293H cells; peptide 30 µM. The method, then: (§3) Preparation of 30 μM and 0.3 μM peptide solution in 300 pM ¹²⁵I-labeled VEGF: For each 96 well plate, 10 mL of 300 pM ¹²⁵I-labeled VEGF in M199 medium was prepared at 4° C. Each peptide solution (3 mM, prepared as described above) was diluted 1:100 and 1:10000 in 300 μl of M199 media with 300 pM ¹²⁵I-labeled VEGF to prepare 30 μM and 0.3 μM peptide solutions containing 300 pM of ¹²⁵I-labeled VEGF. Once prepared, the solutions were kept on ice until ready to use. The dilution of peptides in M199 media containing 300 pM ¹²⁵I-labeled VEGF was done freshly for each experiment.
(§4) To calculate the specific binding to KDR, the binding of ¹²⁵I-labeled VEGF to mock-transfected cells was subtracted from KDR-transfected cells.

Assay [12] has the same target. In words: competitor 125I-VEGF (300 pM) on KDR-transfected 293H cells; peptide 0.3 µM. As to the method:
as §3, §4

The target is the same in assay [13]. Nature of the assay: saturation binding of peptide/neutravidin-HRP complex, KDR- minus mock-transfected 293H cells. As to the method:
After incubation at room temperature, plates were transferred to 4° C. for another half-hour incubation. Subsequently, cells were washed 5 times with ice-cold M199 media and once with ice-cold PBS (in that order). After the final wash, 100 μl of ice cold TMB solution (KPL, cat. # 50-76-00) was added to each well and each plate was incubated for 30 minutes at 37° C. in an air incubator.
Therefore, absorbance on the Y-axis of FIG. 1 is differential absorbance (KDR minus mock) and not the absolute absorbance.

Bridge positions count the residues as written; N and C are the ends. Side chains are listed from the residue outwards. Ends that are not written are not given here. I, II: the chains in the order shown. * marks the point of attachment. Biotin = O=C1N[C@H]2[C@H](CS[C@H]2CCCCC(=O)*)N1; AEEA = NCCOCCOCC(=O)O

T1 sequence (P35968 20-764, change not shown): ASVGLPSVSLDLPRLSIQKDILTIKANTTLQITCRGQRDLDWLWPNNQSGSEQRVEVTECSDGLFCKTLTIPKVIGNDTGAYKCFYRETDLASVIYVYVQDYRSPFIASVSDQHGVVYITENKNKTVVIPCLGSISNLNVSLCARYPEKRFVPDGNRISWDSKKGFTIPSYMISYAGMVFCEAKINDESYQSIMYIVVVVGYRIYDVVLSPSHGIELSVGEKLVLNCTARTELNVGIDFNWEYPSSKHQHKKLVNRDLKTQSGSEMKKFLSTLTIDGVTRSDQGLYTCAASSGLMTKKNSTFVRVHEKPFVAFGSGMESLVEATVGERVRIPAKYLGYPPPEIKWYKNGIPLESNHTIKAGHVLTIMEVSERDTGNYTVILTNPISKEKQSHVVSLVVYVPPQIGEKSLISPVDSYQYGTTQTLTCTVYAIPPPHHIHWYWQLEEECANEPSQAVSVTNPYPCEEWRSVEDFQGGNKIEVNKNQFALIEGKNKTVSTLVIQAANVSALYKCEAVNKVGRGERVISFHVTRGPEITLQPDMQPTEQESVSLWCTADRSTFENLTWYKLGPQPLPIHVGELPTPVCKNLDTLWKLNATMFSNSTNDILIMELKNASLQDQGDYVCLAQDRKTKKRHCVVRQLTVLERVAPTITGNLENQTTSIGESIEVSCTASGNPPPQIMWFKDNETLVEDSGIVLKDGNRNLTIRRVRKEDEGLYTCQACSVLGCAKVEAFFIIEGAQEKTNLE
T2 sequence (P35968 20-1356): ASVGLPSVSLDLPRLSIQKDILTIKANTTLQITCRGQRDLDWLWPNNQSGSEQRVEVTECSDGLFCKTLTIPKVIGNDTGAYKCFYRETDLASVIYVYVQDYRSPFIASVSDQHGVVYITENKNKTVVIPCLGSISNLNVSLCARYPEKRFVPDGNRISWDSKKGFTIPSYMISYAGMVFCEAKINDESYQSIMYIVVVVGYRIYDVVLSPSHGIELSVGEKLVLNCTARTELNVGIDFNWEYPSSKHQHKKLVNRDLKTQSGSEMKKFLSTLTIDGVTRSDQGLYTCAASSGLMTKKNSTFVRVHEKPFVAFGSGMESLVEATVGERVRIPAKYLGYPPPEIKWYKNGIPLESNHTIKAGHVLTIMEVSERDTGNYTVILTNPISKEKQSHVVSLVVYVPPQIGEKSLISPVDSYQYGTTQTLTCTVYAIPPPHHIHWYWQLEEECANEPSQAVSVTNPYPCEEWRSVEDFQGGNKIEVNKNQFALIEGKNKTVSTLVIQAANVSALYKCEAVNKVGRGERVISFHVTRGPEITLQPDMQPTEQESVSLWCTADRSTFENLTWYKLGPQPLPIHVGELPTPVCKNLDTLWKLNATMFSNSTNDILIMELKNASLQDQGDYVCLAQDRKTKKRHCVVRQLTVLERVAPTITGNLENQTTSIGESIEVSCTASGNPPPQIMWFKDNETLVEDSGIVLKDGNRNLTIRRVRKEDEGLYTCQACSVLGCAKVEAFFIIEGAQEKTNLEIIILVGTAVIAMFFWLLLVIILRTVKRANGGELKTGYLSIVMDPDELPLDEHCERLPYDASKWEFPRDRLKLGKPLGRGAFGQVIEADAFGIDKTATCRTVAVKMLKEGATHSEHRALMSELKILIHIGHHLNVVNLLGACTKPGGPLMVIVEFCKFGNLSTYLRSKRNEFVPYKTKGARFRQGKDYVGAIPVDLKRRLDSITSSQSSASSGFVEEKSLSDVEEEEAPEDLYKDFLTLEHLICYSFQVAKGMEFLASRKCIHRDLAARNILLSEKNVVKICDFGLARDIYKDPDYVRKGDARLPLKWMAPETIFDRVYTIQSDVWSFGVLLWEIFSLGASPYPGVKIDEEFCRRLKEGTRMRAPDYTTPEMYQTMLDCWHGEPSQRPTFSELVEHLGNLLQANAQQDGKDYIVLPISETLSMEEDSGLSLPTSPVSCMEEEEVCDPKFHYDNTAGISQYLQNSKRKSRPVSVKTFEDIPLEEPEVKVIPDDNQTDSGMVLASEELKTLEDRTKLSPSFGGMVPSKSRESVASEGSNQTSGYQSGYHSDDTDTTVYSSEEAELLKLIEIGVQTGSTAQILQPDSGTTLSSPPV

B1: dimer 28 (D28) (peptide)
peptide 1: AQEPEGYAYWEVITLYHEEDGDGGK
peptide 2: AQAFPRFGGDDYWIQQYLRYTDGGK
modifications: also: tail-to-tail heterodimer, linkage not given here
For the molecule B1, in [1], the Kd (in general, the constant that tells how readily two partners part at equilibrium) was 11 nM.

B2: tetrameric neutravidin-HRP complex of SEQ ID NO:294 and SEQ ID NO:264, ratio 2:2 (other)
peptide 1: Ac-GDSRVCWEDSWGGEVCFRYDPGGGK([AEEA-AEEA-Biotin])-NH2
peptide 2: Ac-AGPKWCEEDWYYCMITGTGGGK([AEEA-AEEA-Biotin])-NH2
modifications: disulfide I:6-I:16, II:6-II:13 (inferred); also: tetrameric neutravidin-HRP complex, chain ratio 2:2
notes: nominal composition
Take B2: in [2], the binding result is “binds”.

B3: tetrameric neutravidin-HRP complex of SEQ ID NO:294 and SEQ ID NO:264, ratio 3:1 (other)
peptide 1: Ac-GDSRVCWEDSWGGEVCFRYDPGGGK([AEEA-AEEA-Biotin])-NH2
peptide 2: Ac-AGPKWCEEDWYYCMITGTGGGK([AEEA-AEEA-Biotin])-NH2
modifications: disulfide I:6-I:16, II:6-II:13 (inferred); also: tetrameric neutravidin-HRP complex, chain ratio 3:1
notes: nominal composition
Take B3: the binding result in [2] is listed as “binds”.

B4: dimer 6 (D6) (peptide)
peptide 1: GDSRVCWEDSWGGEVCFRYDPGGGK
peptide 2: AGPTWCEDDWYYCWLFGTGGGK
modifications: disulfide I:6-I:16, II:6-II:13 (inferred); also: heterodimer joined by glutaric acid linkage
As to B4, the Kd in assay [3] was 0.665 nM; in [4], 25.5 nM; in assay [5] it was 0.662 nM; in assay [6], 46 nM; in assay [7], about 0.6 nM; in assay [8], 17 nM. For the same molecule, in [10], the Kd worked out at 1.5 nM. For the same molecule, the “IC50, VEGF-induced migration of HUVECs” value in assay [9] is about 12.5 nM. The “IC50, VEGF-induced migration of HUVECs, with 100 nM Adjunct A” value in [9] is about 2.5 nM.

B5: tetrameric neutravidin-HRP complex of SEQ ID NO:294 and SEQ ID NO:264, ratio 1:3 (other)
peptide 1: Ac-GDSRVCWEDSWGGEVCFRYDPGGGK([AEEA-AEEA-Biotin])-NH2
peptide 2: Ac-AGPKWCEEDWYYCMITGTGGGK([AEEA-AEEA-Biotin])-NH2
modifications: disulfide I:6-I:16, II:6-II:13 (inferred); also: tetrameric neutravidin-HRP complex, chain ratio 1:3
notes: nominal composition
In the case of B5, the binding result in assay [2] was “binds”.

With Ac-GDSRVCWEDSWGGEVCFRYDP (disulfide 6-16 (inferred)) [acetylated SEQ ID NO:294 without the modified C-terminus (SEQ ID NO:374)], the “% inhibition of 125I-labeled VEGF binding” value in assay [11] is 96.3%; in assay [12] it was 52.3%.

Consider VCWEDSWGGEVCFRYDPGGGK (disulfide 2-12 (inferred)) [SEQ ID NO:337, monomeric free peptide], for which the “IC50, receptor activation assay” value in assay [9] was 1000 nM.

B6: tetrameric complex of biotinylated SEQ ID NO:294 (JJ spacer) with neutravidin-HRP (other)
peptide: Ac-GDSRVCWEDSWGGEVCFRYDPGGGK([AEEA-AEEA-Biotin])-NH2
modifications: disulfide 6-16 (inferred); also: tetrameric complex with neutravidin-HRP
notes: peptides held on neutravidin-HRP (Pierce 31001)
B6 yielded a dissociation constant Kd in assay [13] of 10 nM.
